Experimental data as given in patent US20240392004A1 (IMMUNOWAKE, published 2024).

How the values were obtained:
[1] = target: T1, human TIGIT on HEK-Blue reporter cells (human, UniProt Q495A1 22-244); experiment: cell-based or functional assay
T1 sequence (looked up): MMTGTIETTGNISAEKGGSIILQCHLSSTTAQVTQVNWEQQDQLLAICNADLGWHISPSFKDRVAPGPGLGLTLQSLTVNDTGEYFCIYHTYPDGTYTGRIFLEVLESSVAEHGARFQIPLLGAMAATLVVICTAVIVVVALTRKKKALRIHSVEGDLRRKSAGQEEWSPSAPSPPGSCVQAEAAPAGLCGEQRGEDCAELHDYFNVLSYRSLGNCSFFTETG

[2] = target: human IL-12 receptor complex (IL-12Rβ1 and IL-12Rβ2) (human, UniProt P42701 24-662; Q99665 24-862); experiment: cell-based or functional assay
[3] = target: T2, IFN-γ receptor (IFNGR1 and IFNGR2) (UniProt P15260 18-489; P38484 22-337, limits assumed); experiment: cell-based or functional assay
T2 sequence (looked up) 1: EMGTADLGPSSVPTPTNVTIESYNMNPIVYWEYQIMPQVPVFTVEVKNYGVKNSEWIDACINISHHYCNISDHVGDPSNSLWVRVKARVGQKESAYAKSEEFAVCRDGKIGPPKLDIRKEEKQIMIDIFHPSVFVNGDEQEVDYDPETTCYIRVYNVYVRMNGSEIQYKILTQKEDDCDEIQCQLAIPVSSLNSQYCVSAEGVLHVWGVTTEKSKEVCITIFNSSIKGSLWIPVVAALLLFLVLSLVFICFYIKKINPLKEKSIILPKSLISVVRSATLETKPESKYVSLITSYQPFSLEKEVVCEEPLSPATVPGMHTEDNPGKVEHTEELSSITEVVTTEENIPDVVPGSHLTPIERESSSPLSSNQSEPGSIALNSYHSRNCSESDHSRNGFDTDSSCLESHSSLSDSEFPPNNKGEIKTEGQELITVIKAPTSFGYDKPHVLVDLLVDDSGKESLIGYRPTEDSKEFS
T2 sequence (looked up) 2: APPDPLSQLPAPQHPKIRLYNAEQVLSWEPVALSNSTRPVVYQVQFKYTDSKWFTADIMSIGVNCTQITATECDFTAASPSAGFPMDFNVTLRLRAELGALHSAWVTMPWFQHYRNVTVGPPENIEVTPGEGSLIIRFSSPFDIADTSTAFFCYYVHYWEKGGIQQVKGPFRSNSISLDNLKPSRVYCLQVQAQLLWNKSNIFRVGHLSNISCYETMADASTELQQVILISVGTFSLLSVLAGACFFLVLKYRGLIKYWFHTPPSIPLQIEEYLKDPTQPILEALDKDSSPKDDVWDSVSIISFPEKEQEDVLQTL

[4] = target: T3, human IL-2 receptor (IL-2Rα, IL-2Rβ, IL-2Rγ) (human, UniProt P01589 22-272; P14784 27-551; P31785 23-369); experiment: cell-based or functional assay
T3 sequence (looked up) 1: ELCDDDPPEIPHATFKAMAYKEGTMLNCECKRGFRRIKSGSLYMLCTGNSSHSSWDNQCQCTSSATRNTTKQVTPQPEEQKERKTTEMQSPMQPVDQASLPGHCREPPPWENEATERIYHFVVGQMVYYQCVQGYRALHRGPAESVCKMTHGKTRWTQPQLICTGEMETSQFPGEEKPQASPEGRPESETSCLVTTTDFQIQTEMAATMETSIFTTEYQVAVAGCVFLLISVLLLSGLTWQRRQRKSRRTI
T3 sequence (looked up) 2: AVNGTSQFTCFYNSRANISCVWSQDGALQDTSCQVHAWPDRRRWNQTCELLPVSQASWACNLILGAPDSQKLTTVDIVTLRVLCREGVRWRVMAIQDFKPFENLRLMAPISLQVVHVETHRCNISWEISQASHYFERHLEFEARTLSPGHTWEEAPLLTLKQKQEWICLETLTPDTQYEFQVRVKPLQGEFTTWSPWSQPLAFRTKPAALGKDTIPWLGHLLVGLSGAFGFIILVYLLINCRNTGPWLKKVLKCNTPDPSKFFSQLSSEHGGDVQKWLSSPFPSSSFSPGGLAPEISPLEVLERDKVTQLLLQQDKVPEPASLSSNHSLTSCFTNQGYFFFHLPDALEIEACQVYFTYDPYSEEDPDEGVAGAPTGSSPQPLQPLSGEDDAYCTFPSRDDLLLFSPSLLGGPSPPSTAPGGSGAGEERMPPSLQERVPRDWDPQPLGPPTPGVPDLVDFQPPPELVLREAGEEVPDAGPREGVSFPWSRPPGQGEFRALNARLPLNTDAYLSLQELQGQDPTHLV
T3 sequence (looked up) 3: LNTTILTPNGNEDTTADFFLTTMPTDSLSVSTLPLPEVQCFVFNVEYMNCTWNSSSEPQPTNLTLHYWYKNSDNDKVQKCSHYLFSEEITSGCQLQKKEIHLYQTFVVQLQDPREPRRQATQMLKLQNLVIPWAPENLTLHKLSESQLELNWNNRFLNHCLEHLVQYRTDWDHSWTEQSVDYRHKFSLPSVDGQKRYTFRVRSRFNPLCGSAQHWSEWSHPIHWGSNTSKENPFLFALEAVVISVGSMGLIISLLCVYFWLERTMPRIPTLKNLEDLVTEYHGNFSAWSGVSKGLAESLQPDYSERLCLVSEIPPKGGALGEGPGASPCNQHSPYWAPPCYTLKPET

mouse PD-1 = target: T4, mouse PD-1 (mouse, UniProt Q02242 25-167, limits assumed); experiment: same value as Table 15 (measured in PD-L2-Fc format)
T4 construct: also called mPD-1
T4 sequence (looked up): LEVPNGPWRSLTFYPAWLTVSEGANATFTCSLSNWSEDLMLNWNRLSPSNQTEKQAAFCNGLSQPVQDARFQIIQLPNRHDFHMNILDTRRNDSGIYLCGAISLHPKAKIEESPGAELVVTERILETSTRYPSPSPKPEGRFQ

human IL-12 receptor complex (IL-12Rβ1 and IL-12Rβ2), sequence (Q99665 24-862, chain 2 of 2, other chains not shown): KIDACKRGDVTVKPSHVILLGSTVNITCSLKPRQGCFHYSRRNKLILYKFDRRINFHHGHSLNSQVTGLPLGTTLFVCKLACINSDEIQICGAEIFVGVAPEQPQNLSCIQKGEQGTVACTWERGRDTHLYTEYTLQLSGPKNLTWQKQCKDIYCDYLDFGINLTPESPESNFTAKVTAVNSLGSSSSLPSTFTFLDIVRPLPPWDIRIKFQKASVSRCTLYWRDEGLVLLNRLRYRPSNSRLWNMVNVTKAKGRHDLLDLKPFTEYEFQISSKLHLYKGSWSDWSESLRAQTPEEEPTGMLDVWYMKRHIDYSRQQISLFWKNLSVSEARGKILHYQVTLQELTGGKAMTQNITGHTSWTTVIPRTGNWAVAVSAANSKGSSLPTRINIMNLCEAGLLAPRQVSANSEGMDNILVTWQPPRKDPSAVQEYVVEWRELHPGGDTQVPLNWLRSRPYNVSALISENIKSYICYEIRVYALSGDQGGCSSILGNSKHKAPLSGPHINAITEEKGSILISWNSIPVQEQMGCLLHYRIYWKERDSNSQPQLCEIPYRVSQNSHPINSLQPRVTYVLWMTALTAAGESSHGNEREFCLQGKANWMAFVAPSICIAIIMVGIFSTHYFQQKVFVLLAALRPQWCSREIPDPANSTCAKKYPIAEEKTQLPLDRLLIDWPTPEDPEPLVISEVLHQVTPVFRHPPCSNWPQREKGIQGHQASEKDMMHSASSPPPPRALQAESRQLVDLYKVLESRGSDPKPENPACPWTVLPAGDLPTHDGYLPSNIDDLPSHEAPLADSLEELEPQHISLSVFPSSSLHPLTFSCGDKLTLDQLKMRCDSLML

B1: IFN-γ(A23V/A23V)/CD155-Fc/IL-12(E59A/F60A) (Fc fusion)
chain 1: WPPPGTGDVVVQAPTQVPGFLGDSVTLPCYLQVPNMEVTHVSQLTWARHGESGSMAVFHQTQGPSYSESKRLEFVAARLGAELRNASLRMFGLRVEDEGNYTCLFVTFPQGSRSVDIWLRVLAKPQNTAEVQKVQLTGEPVPMARCVSTGGRPPAQITWHSDLGGMPNTSQVPGFLSGTVTVTSLWILVPSSQVDGKNVTCKVEHESFEKPQLLTVNLTVYYPPEVSISGYDNNWYLGQNEATLTCDARSNPEPTGYNWSTTMGPLPPFAVAQGAQLLIRPVDKPINTTLICNVTNALGARQAELTVQVKEGPPSEHSGISRNGGGGSGGGDKTHTCPPCPAPEDEGGPSVFLFPPKPKDTLMISRTPEVTCVVVDVSHEDPEVKFNWYVDGVEVHNAKTKPREEQYNSTYRVVSVLTVLHQDWLNGKEYKCKVSNKALPAPIEKTISKAKGQPREPQVYVYPPSREEMTKNQVSLTCLVKGFYPSDIAVEWESNGQPENNYKTTPPVLDEDGSFALVSKLTVDKSRWQQGNVFSCSVMHEALHNHYTQKSLSLSPGKGGGGSGGGIWELKKDVYVVELDWYPDAPGEMVVLTCDTPEEDGITWTLDQSSEVLGSGKTLTIQVKAAGDAGQYTCHKGGEVLSHSLLLLHKKEDGIWSTDILKDQKEPKNKTFLRCEAKNYSGRFTCWWLTTISTDLTFSVKSSRGSSDPQGVTCGAATLSAERVRGDNKEYEYSVECQEDSACPAAEESLPIEVMVDAVHKLKYENYTSSFFIRDIIKPDPPKNLQLKPLKNSRQVEVSWEYPDTWSTPHSYFSLTFCVQVQGKSKREKKDRVFTDKTSATVICRKNASISVRAQDRYYSSSWSEWASVPCSGGGGSGGGSGGGGSRNLPVATPDPGMFPCLHHSQNLLRAVSNMLQKARQTLEFYPCTSEEIDHEDITKDKTSTVEACLPLELTKNESCLNSRETSFITNGSCLASRKTSFMMALCLSSIYEDLKMYQVEFKTMNAKLLMDPKRQIFLDQNMLAVIDELMQALNFNSETVPQKSSLEEPDFYKTKIKLCILLHAFRIRAVTIDRVMSYLNAS
chain 2: WPPPGTGDVVVQAPTQVPGFLGDSVTLPCYLQVPNMEVTHVSQLTWARHGESGSMAVFHQTQGPSYSESKRLEFVAARLGAELRNASLRMFGLRVEDEGNYTCLFVTFPQGSRSVDIWLRVLAKPQNTAEVQKVQLTGEPVPMARCVSTGGRPPAQITWHSDLGGMPNTSQVPGFLSGTVTVTSLWILVPSSQVDGKNVTCKVEHESFEKPQLLTVNLTVYYPPEVSISGYDNNWYLGQNEATLTCDARSNPEPTGYNWSTTMGPLPPFAVAQGAQLLIRPVDKPINTTLICNVTNALGARQAELTVQVKEGPPSEHSGISRNGGGSGQDPYVKEAENLKKYFNAGHSDVVDNGTLFLGILKNWKEESDRKIMQSQIVSFYFKLFKNFKDDQSIQKSVETIKEDMNVKFFNSNKKKRDDFEKLTNYSVTDLNVQRKAIHELIQVMAELSPAAKTGKRKRSQMLFRGGGGSGGGGSGGGGSGGGGSQDPYVKEAENLKKYFNAGHSDVVDNGTLFLGILKNWKEESDRKIMQSQIVSFYFKLFKNFKDDQSIQKSVETIKEDMNVKFFNSNKKKRDDFEKLTNYSVTDLNVQRKAIHELIQVMAELSPAAKTGKRKRSQMLFRGGGGGSGGGDKTHTCPPCPAPEKKGGPSVFLFPPKPKDTLMISRTPEVTCVVVDVSHEDPEVKFNWYVDGVEVHNAKTKPREEQYNSTYRVVSVLTVLHQDWLNGKEYKCKVSNKALPAPIEKTISKAKGQPREPQVYVLPPSREEMTKNQVSLLCLVKGFYPSDIAVEWESNGQPENRYMTWPPVLDSDGSFFLYSKLTVDKSRWQQGNVFSCSVMHEALHNHYTQKSLSLSPGK
For B1, which “IL-12 signal transduction, HEK-IL-12-TIGIT” value [1] is on record?
The value was 60%.

What about the “IL-12 signal transduction, HEK-IL-12” value [2] of the same binder?
The value was 2%.

What about the “IFN-γ signal transduction, HEK-IFN-γ” value [3] of the same binder?
The value was under 0.2%.

B2: anti-PD-1 antibody nivolumab (Opdivo) (antibody, human IgG4 S228P, kappa, V domains shown)
VH: QVQLVESGGGVVQPGRSLRLDCKASGITFSNSGMHWVRQAPGKGLEWVAVIWYDGSKRYYADSVKGRFTISRDNSKNTLFLQMNSLRAEDTAVYYCATNDDYWGQGTLVTVSS
VL: EIVLTQSPATLSLSPGERATLSCRASQSVSSYLAWYQQKPGQAPRLLIYDASNRATGIPARFSGSGSGTDFTLTISSLEPEDFAVYYCQQSSNWPRTFGQGTKVEIKR
With B2 as the binder, how does the “Percent IL-2 signal transduction (HEK-IL-2 reporter assay)” value [4] read?
Its value is 0%.

B3: IL-12(E59A/F60A)/PD-L2(WT)-Fc (Fc fusion)
chain 1: LFTVTVPKELYIIEHGSNVTLECNFDTGSHVNLGAITASLQKVENDTSPHRERATLLEEQLPLGKASFHIPQVQVRDEGQYQCIIIYGVAWDYKYLTLKVKASYRKINTHILKVPETDEVELTCQATGYPLAEVSWPNVSVPANTSHSRTPEGLYQVTSVLRLKPPPGRNFSCVFWNTHVRELTLASIDLQSQMEPRTHPTGSGIWELKKDVYVVELDWYPDAPGEMVVLTCDTPEEDGITWTLDQSSEVLGSGKTLTIQVKAAGDAGQYTCHKGGEVLSHSLLLLHKKEDGIWSTDILKDQKEPKNKTFLRCEAKNYSGRFTCWWLTTISTDLTFSVKSSRGSSDPQGVTCGAATLSAERVRGDNKEYEYSVECQEDSACPAAEESLPIEVMVDAVHKLKYENYTSSFFIRDIIKPDPPKNLQLKPLKNSRQVEVSWEYPDTWSTPHSYFSLTFCVQVQGKSKREKKDRVFTDKTSATVICRKNASISVRAQDRYYSSSWSEWASVPCSGGGGSGGGGSGGGGSGGGGSGRNLPVATPDPGMFPCLHHSQNLLRAVSNMLQKARQTLEFYPCTSEEIDHEDITKDKTSTVEACLPLELTKNESCLNSRETSFITNGSCLASRKTSFMMALCLSSIYEDLKMYQVEFKTMNAKLLMDPKRQIFLDQNMLAVIDELMQALNFNSETVPQKSSLEEPDFYKTKIKLCILLHAFRIRAVTIDRVMSYLNASDKTHTCPPCPAPEDEGGPSVFLFPPKPKDTLMISRTPEVTCVVVDVSHEDPEVKFNWYVDGVEVHNAKTKPREEQYNSTYRVVSVLTVLHQDWLNGKEYKCKVSNKALPAPIEKTISKAKGQPREPQVYVYPPSREEMTKNQVSLTCLVKGFYPSDIAVEWESNGQPENNYKTTPPVLDEDGSFALVSKLTVDKSRWQQGNVFSCSVMHEALHNHYTQKSLSLSPGK
chain 2: LFTVTVPKELYIIEHGSNVTLECNFDTGSHVNLGAITASLQKVENDTSPHRERATLLEEQLPLGKASFHIPQVQVRDEGQYQCIIIYGVAWDYKYLTLKVKASYRKINTHILKVPETDEVELTCQATGYPLAEVSWPNVSVPANTSHSRTPEGLYQVTSVLRLKPPPGRNFSCVFWNTHVRELTLASIDLQSQMEPRTHPTGSGDKTHTCPPCPAPEKKGGPSVFLFPPKPKDTLMISRTPEVTCVVVDVSHEDPEVKFNWYVDGVEVHNAKTKPREEQYNSTYRVVSVLTVLHQDWLNGKEYKCKVSNKALPAPIEKTISKAKGQPREPQVYVLPPSREEMTKNQVSLLCLVKGFYPSDIAVEWESNGQPENRYMTWPPVLDSDGSFFLYSKLTVDKSRWQQGNVFSCSVMHEALHNHYTQKSLSLSPGK
notes: also called IL-12(E59A/F60A)/PD-L2-Fc; construct #29
How did the Kd (mouse PD-1) turn out when B3 was run?
The Kd was 980 nM.
